According to the DeepSol protein solubility set:

Test: soluble on expression in E. coli; label from the status in PepcDB or PDB records

Sequence	soluble on expression in E. coli
HMGARASVLSGGELDKWEKIRLRPGGKKQYKLKHIVWASRELERFAVNPGLLETSEGCRQILGQLQPSLQTGSEELRSLYNTIAVLYCVHQRIDVKDTKEALDKIEEEQNKSKKKAQQAAADTGNNSQVSQNY	soluble
MTEFDNLTWLHGKPQGSGLLKANPEDFVVVEDLGFTPDGEGEHILLRILKNGCNTRFVADALAKFLKIHAREVSFAGQKDKHAVTEQWLCARVPGKEMPDFSAFQLEGCKVLEYARHKRKLRLGALKGNAFTLVLREISDRRDVETRLQAIRDGGVPNYFGAQRFGIGGSNLQGALRWAQSNAPVRDRNKRSFWLSAARSALFNQIVHQRLKKPDFNQVVDGDALQLAGRGSWFVATSEELPELQRRVDEKELMITASLPGSGEWGTQRAALAFEQDAIAQETVLQSLLLREKVEASRRAMLLYPQQLSWNWWDDVTVELRFWLPAGSFATSVVRELINTMGDYAHIAE	not soluble
MSILLVKNAQIVNDDAIFVADILIEDGIIQNVAPNLEAPEGAEVLDAAGKLALPAGIDVYTQVTDSSVDDLSTGCKSAIAGGTGTIVEVVRPRGAESVVSAVKRVKNQLEKSGISCHVALSVAITDFCEQEMSELVKNEGINSFVLDGVSLTDDKLLELFEHVKRLGALIRVVPENKSIVAMLEKKMLKLGVTGPEGFPQSRPESLEADRVSGVCVLGNLASCPISIVQVSSADSLAAIEKARASGALAHAEIASAAVTADGSALFSQDLRFASAHLTDVPLRRGAPDRMIGALSTQPLVVCTSGHRPVNSATRVAAKDFAIAQKGSTGAEERMAVVWERAVRSGRIDAMRFVAVTSTNAAKMFNMYPKKGRIAVGADADLVIWDASGKRVLESSRAQSSQENSMYDGLTVHSVVTATIVGGKIAYQNGEVREAPVAGGFLRLSPNSPYLFSMVGQRDKFANVERVEREASSQQQKPQQNGHHKNSGDFDRNRTKVMESSIDFGGSAANRPRNPPGGRTTGFW	not soluble
MSVIIVGGGMAGATLALAISQFSHGTLPVHLIEAKAPEADGHPGFDARAIALAAGTCQQLARIGVWQAISDCATAINTVHVSDRGHAGFVTLDAQDYSLAALGHVAELHDIGLRLFALLRKAPGVTLHCPERVASVSRTQQQVNVTLENGNVIAGSVLVAANGTHSALASRCGVDWHQEPYEQLAVIANVATAIPHQGRAFERFTPNGPLAMLPMSHGRCSLVWCHPLDQRDEVLSWSDAQFCHALQAAFGWRLGRITQAGKRSAYPLALTTAAKVFSHRTVVVGNAAQTLHPIAGQGFNLGLRDVMSLAETLVAAQDAGEDIGAWHVLSRYQQRRQVDRDTTIGVTNGLVHLFANRWAPLVIGRNIGLMAMELLPPARDALAQRTLGWVARLEHHHHHH	not soluble
MTTEKEMKQIQNEFKERMDEGELLNCMRCGFCLPSCPTYIESGFQETHSPRGRIALMKAVADGMIEPDEDVERSLSLCLGCRACEPVCPSGVKYGQLLEEARDIIHQNKKHSLGERVMRKTAFHELFPHQNRMRSAVSLIGLYQRSGLQTAVRKSGMLRVLPEHLRTMEAVLPDVPKSKDMKHRPRFLPSIGPMKKRVAFFSGCLMDTMFLPTNNATLKLLQLAGCDIVIPPEQACCGALHGHSGEKNTGKELAKQNIAAFEALDVDAVITNAGGCGAFLTEYDHLLKDDPEWSERAAAFVQKLKDFSSVLVELDFHQMDLALETPQVVTYQDSCHLRNVMHTSLEPRQLLKSIKGAEFKEMEKADSCCGSAGIYNIVEVEMSMKILDSKMAAVKATEAILIVTANPGCLLQMKLGIEREGLSGKVRAVHLADLLLEAAGHKTS	not soluble
MALVNEHFLKLPGSYLFSDIAKKVNTFKITHPKQDIIRLGIGDVTQPLPKACIEAMHKAVEELASKDTFRGYGPEQGYDFLIEAIIKNDFAPRGIHFSPSEIFVNDGAKSDTGNIGDILRHDNSVGVTDPIYPVYIDSNVMCGRAGVLEEGTGKWSNVTYMPCTSENDFIPEIPDKRIDIVYLCYPNNPTGTTLTKPELKKWVDYALANDTLILFDAAYEAYIQDADVPHSIYEIKGAKKCAIEFRSFSKTAGFTGVRCGYTVVPKELTAATLEGDRIPLNKLWNRRQCTKFNGTSYITQRAAEAVYSTEGKAQIKETINYYMSNAKIMKEGLEATGLKVYGGVNAPYLWVKTPNGLSSWRFFEQMLYEANVVGTPGVGFGPSGEGYIRLTAFGDHNDCMEAMRRIKNWL	not soluble
MILHPRPSPIAAAMYQLRDIGVDAIILHGPSGCCFRTARLLEIDGIRVFTSAMGENDFIFGAMDKLRDVIAEVLEYLKKETPKSEKYKIGIVGTCASMIIGEDLESLIDDFDDIIIPVDIHSGLVDNTVGAIRAMDGALNAGLIDYSEYLEHHHHHH	not soluble
MGSDKIHHHHHHMRRKIPSSASLQAFDAAARHGNFARAAEELSLTEGAISRQIARLEALLNCKLFDRMGSRVKLNPVGAHYAHHVRETLDRLERDTQYIMGMPEGSKSLDIAVLPTFSNRWLIPRLSGFNSLFPDITLNIAARTDPFILPGSGFDAVIHFEHSAWTGMRMQFLFQENLLPVCNPALLTNNDVNRQLNELPRIHRRQNPEAWHHYARESGIRLDNPAQGVRYDLHEMTIAAVIAGHGVALVPRMYVENELSCGMLVSPWPASDCLSKKFCLVKPMETGINEDALESFERWLLAEMNTLTSLNAER	not soluble
QLKDKFDGRPTKPPPNSYSLYCAELMANMKDVPSTERMVLCSQQWKLLSQKEKDAYHKKCDQKKKDYEVELLRFLESLPEEEQQRVLGEEKMLNI	soluble
MTNPLYTGHPFGTTVTEETLRAIFLPLTQWEDKYRQLILLGKQLPALPDECKAQAKEIAGCENRVWLGFTRSDNGTMHFFGDSEGRIVRGLLAVLLTAVEGKNAAELQARSPLALFDELGLRAQLSASRSQGLNALSEAIVAATHKG	not soluble
TYDGKVESVVLGFATEVPEPWVTEKLSITEEELVYKIIRLRIIEDVPSIIEYTWMPVALIPNLTMKELKVSIYQYISEQLHQKIQSARVSISGIRPSPLEKKYLNLTDNDFLMRAEQIAYLGNGHIFEYSIANHIPSEFTFETVLIAEK	not soluble
MGSDKIHHHHHHMDIKLKDFEGPLDLLLHLVSQYKVDIYEVPIVEVIEQYLNYIETLQVMKLEVAGDYMLMASQLMLIKSRRLLPKVVEHIEEDLEQDLLEKIEEYSRFKAVSQALAKQHDQRAKWYSKPKQELIFEDAILQEDKTVMDLFLAFSNIMAAKRAVLKNNHTVIERDDYKIEDMMASIKQRLEKENVIRLSAIFEECQTLNEVISIFLASLELIKLHVVFVEQLSNFGAIILRKEKK	not soluble
MTITPATHAISINPATGEQLSVLPWAGADDIENALQLAAAGFRDWRETNIDYRAEKLRDIGKALRARSEEMAQMITREMGKPINQARAEVAKSANLCDWYAEHGPAMLKAEPTLVENQQAVIEYRPLGTILAIMPWNFPLWQVMRGAVPIILAGNGYLLKHAPNVMGCAQLIAQVFKDAGIPQGVYGWLNADNDGVSQMIKDSRIAAVTVTGSVRAGAAIGAQAGAALKKCVLELGGSDPFIVLNDADLELAVKAAVAGRYQNTGQVCAAAKRFIIEEGIASAFTERFVAAAAALKMGDPRDEENALGPMARFDLRDELHHQVEKTLAQGARLLLGGEKMAGAGNYYPPTVLANVTPEMTAFREEMFGPVAAITIAKDAEHALELANDSEFGLSATIFTTDETQARQMAARLECGGVFINGYCASDARVAFGGVKKSGFGRELSHFGLHEFCNIQTVWKDRI	soluble
MAHHHHHHMIGKIFDNAFRIRTYNRFVCFLIGGTFAYSFSNPDMDTVYDLFPIFKQNKYAYLTFLEVNEKHSNVFEERLKDLCRFYQKQPGYLYTKIIKRIDNINDISKYIVISTWIKSENYLLACNRMYGQILINKIQNYAKYNSYLYRIVVDDSDYLPPI	not soluble
MTIEHGIWPGKIDIYEKNFNTGQKCMRNPFQNPFPESDTARHSIWEMLVSRDIDAFLAADWSMVADDFVEESFIGVDGRRETNPDKWRLTFPSLAVYRDEWLRQARDFAGQSFAEDPREAIFTTTTLEDIEVDGELALARKKFDGGLKKADGTFDVMKWQTVYYCRLHRGRWKICGFTGYLPNPMGSN	soluble
FFETIHPDDRERIRSEIETAGDSGEPNSVEFRFVEPDGTVVWVVGQAVPVTDDEGNLTERVVGIATDITDLKQR	not soluble
